Drawing on patent publication US20240010684A1, “MASP INHIBITORY COMPOUNDS AND USES THEREOF” (BAYER AKTIENGESELLSCHAFT, priority 2020, published 2024), this text covers human MASP2 IC50 and human MASP1 IC50 for one substance.

The target in assay [1] is recombinant human MASP2 (amino acids 297-686, C-terminal His Tag) (human) (UniProt O00187). Nature of the assay: cell-based or functional assay.
The target in assay [2] is T1, recombinant human MASP1 (amino acids 297-699, C-terminal His Tag) (human) (UniProt P48740).
T1 sequence: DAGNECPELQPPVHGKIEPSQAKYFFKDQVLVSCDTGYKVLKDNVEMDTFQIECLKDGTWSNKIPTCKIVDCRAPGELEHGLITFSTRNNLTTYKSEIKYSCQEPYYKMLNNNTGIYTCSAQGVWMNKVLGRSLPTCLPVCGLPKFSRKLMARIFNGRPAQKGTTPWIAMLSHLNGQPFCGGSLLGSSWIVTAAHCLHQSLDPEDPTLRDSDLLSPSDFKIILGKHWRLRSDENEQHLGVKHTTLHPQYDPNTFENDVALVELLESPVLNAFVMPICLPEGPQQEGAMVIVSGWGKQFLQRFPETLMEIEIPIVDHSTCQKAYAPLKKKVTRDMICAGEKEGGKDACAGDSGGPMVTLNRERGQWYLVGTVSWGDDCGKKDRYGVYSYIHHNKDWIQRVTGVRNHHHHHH
Nature of the assay: cell-based or functional assay.

Chain of recombinant human MASP2 (amino acids 297-686, C-terminal His Tag) (human) (O00187 other isoform, or with tags, fused parts or gaps limits assumed): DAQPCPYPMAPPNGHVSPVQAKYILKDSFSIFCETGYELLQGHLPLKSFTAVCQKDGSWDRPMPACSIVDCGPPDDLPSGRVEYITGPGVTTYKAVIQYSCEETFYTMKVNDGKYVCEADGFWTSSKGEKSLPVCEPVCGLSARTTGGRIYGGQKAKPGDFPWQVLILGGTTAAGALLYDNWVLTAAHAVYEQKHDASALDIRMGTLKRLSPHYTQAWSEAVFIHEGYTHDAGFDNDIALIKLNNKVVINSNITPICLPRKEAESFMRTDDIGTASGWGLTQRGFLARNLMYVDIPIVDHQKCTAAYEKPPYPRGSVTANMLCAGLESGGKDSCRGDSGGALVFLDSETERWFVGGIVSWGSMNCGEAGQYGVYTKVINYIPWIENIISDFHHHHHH

Take “Example 47: A**GGIC+SRS-((tBu)A)-PPI-((N-Me)C)+-IPd** (peptide)”: the human MASP2 IC50 in assay [1] was 66 nM. The human MASP1 IC50 in assay [2] was determined as 8.2 nM.
